The labels stand for the following.
B1: PRIM1 (parent)
chain: CCSSADICPKCWTLMTMAIRIIDR
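Further: lentivirally expressed fusions sorted by FACS into six bins by GFP to DsRed ratio, PSI derived from sequencing read proportions per bin multiplied by bin number.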

In this data set the parent is B1. The data set can be described thus: protein stability index of a GFP-peptide fusion (GPS, HEK-293T) (PSI 1-6); higher = more stable. Conditions: c terminus: a fixed tail appended.
Regarding CCSSADICPKCWTLMTEAIRIIDR [M17E], the protein stability index is 2.5. The result for CCSSADICPKCWTLMTHAIRIIDR [M17H] reads 2.38; that for CCSSADICPKCWTLMTIAIRIIDR [M17I], 1.94; that for CCSSADICPKCWTLMTAAIRIIDR [M17A], 2.03. Then CCSSADICPKCWTLMTDAIRIIDR [M17D], with 2.33; and CCSSADICPKCWTLMTKAIRIIDR [M17K], with 2.56; and CCSSADICPKCWTLMTFAIRIIDR [M17F], with 1.94. Take CCSSADICPKCWTLMTCAIRIIDR [M17C]: the protein stability index stood at 1.15. For CCSSADICPKCWTLMTGAIRIIDR [M17G], the protein stability index is 1.96. CCSSADIVPKCWTLMTMAIRIIDR [C8V]: the protein stability index is 2.88. On to CCSSADIQPKCWTLMTMAIRIIDR [C8Q], for which the protein stability index was 1.8. Then CCSSADIKPKCWTLMTMAIRIIDR [C8K], with 2.95; and CCSSADILPKCWTLMTMAIRIIDR [C8L], with 3.02. As for CCSSADIIPKCWTLMTMAIRIIDR [C8I], the protein stability index was 3.3. The result for CCSSADIRPKCWTLMTMAIRIIDR [C8R] reads 3.94; that for CCSSADIAPKCWTLMTMAIRIIDR [C8A], 3.21. Then CCSSADISPKCWTLMTMAIRIIDR [C8S], with 1.54; and CCSSADINPKCWTLMTMAIRIIDR [C8N], with 2.83; and CCSSADICPKTWTLMTMAIRIIDR [C11T], with 1.76. Consider CCSSADICPKIWTLMTMAIRIIDR [C11I], for which the protein stability index was found to be 2.4. For the variant CCSSADICPKDWTLMTMAIRIIDR [C11D], the protein stability index was found to be 3.13. Consider CCSSADICPKEWTLMTMAIRIIDR [C11E], for which the protein stability index is 3.11. With CCSSADICPKFWTLMTMAIRIIDR [C11F], the protein stability index was found to be 2.58. Then CCSSADICPKKWTLMTMAIRIIDR [C11K], with 1.82. The result for CCSSADICPKWWTLMTMAIRIIDR [C11W] reads 2.84; that for CCSSADICPKAWTLMTMAIRIIDR [C11A], 4.39. As for CCSSADICPKHWTLMTMAIRIIDR [C11H], the protein stability index was determined as 2.43. As for CCSSYDICPKCWTLMTMAIRIIDR [A5Y], the protein stability index came out at 3.67. As for CCSSVDICPKCWTLMTMAIRIIDR [A5V], the protein stability index was 1.64. In the case of CCSSWDICPKCWTLMTMAIRIIDR [A5W], the protein stability index came to 2.15. Regarding CCSSADICPKCWTLMFMAIRIIDR [T16F], the protein stability index amounted to 2.12. Take CCSSADICPKCWTLMAMAIRIIDR [T16A]: the protein stability index is 2.23. Take CCSSADICPKCWTLMPMAIRIIDR [T16P]: the protein stability index was determined as 2.09. On to CCSSADICPKCWTLMHMAIRIIDR [T16H], for which the protein stability index is 2.04. Consider CCSSADICPKCWTLMQMAIRIIDR [T16Q], for which the protein stability index stood at 2.54. Regarding CCSSADICPKCWTLMLMAIRIIDR [T16L], the protein stability index came to 2.

For CCSSADICPKCWTLMSMAIRIIDR [T16S], the protein stability index was determined as 1.49. Regarding CCSSADICPKCWTLMEMAIRIIDR [T16E], the protein stability index came out at 1.48. Take CCSSADICPKCWTLMYMAIRIIDR [T16Y]: the protein stability index stood at 2.08. As to CCSSADICPKCWTLMGMAIRIIDR [T16G], the protein stability index was found to be 2.56. Then CCSSADICPKCWTLMCMAIRIIDR [T16C], with 1.61; and CCSSADICPKCWTLMVMAIRIIDR [T16V], with 1.87; and CCSSADICPKCWTLMMMAIRIIDR [T16M], with 1.52.

For CCSSADICPKCWTLMKMAIRIIDR [T16K], the protein stability index was 1.61. Turning to CCSSADICPKCWTLMDMAIRIIDR [T16D], the protein stability index is 2.07. For CCSSADICPKCWTLMNMAIRIIDR [T16N], the protein stability index turned out to be 2.37. Consider CCSSADICPKCWTLMRMAIRIIDR [T16R], for which the protein stability index is 1.95. On to CCSSADICPKCFTLMTMAIRIIDR [W12F], for which the protein stability index came out at 1.69. In the case of CCSSADICPKCVTLMTMAIRIIDR [W12V], the protein stability index turned out to be 1.23.

Take CCSSADICPKCSTLMTMAIRIIDR [W12S]: the protein stability index was 2.23. The result for CCSSADICPKCCTLMTMAIRIIDR [W12C] reads 1.83. Take CCSSADICPKCATLMTMAIRIIDR [W12A]: the protein stability index was determined as 2.29. Turning to CCSSADICPKCPTLMTMAIRIIDR [W12P], the protein stability index was 1.48. On to CCSSADICPKCHTLMTMAIRIIDR [W12H], for which the protein stability index came out at 2.19.

CCSSADICPKCETLMTMAIRIIDR [W12E]: the protein stability index came to 2.05.

Regarding CCSSADICPKCNTLMTMAIRIIDR [W12N], the protein stability index was 1.83. As for CCSSADICPKCYTLMTMAIRIIDR [W12Y], the protein stability index was determined as 2.48. On to CCSSADICPKCDTLMTMAIRIIDR [W12D], for which the protein stability index was 1.71. The result for CCSSADICPKCITLMTMAIRIIDR [W12I] reads 1.83; that for CCSSADICPKCQTLMTMAIRIIDR [W12Q], 2.75; that for CCSSADICPKCMTLMTMAIRIIDR [W12M], 2.02. Consider CCSSADICPKCLTLMTMAIRIIDR [W12L], for which the protein stability index was 1.56. Take CCSSADICPKCRTLMTMAIRIIDR [W12R]: the protein stability index came out at 2.56. As for CCSSADICPKCKTLMTMAIRIIDR [W12K], the protein stability index turned out to be 2.64.

Turning to CCSSADICPKCGTLMTMAIRIIDR [W12G], the protein stability index was 2.2. CCSSADICPKCTTLMTMAIRIIDR [W12T]: the protein stability index stood at 1.88. The result for CCSSADICPECWTLMTMAIRIIDR [K10E] reads 1.56; that for CCSSADICPLCWTLMTMAIRIIDR [K10L], 2.14; that for CCSSADICPDCWTLMTMAIRIIDR [K10D], 3.36.

In the case of CCSSADICPQCWTLMTMAIRIIDR [K10Q], the protein stability index came to 1.98. Regarding CCSSADICPRCWTLMTMAIRIIDR [K10R], the protein stability index is 2.3. Regarding CCSSADICPTCWTLMTMAIRIIDR [K10T], the protein stability index came to 2.71.

Turning to CCSSADICPFCWTLMTMAIRIIDR [K10F], the protein stability index came out at 1.95. CCSSADICPMCWTLMTMAIRIIDR [K10M]: the protein stability index was determined as 1.92. As to CCSSADICPNCWTLMTMAIRIIDR [K10N], the protein stability index is 1.81.

For CCSSADICPCCWTLMTMAIRIIDR [K10C], the protein stability index was 2.62. Turning to CCSSADICPYCWTLMTMAIRIIDR [K10Y], the protein stability index came out at 1.85. Then CCSSADICPHCWTLMTMAIRIIDR [K10H], with 2. As for CCSSADICVKCWTLMTMAIRIIDR [P9V], the protein stability index amounted to 2.27.

For CCSSADICTKCWTLMTMAIRIIDR [P9T], the protein stability index is 1.47. The result for CCSSADICCKCWTLMTMAIRIIDR [P9C] reads 2.43; that for CCSSADICKKCWTLMTMAIRIIDR [P9K], 2.69; that for CCSSADICWKCWTLMTMAIRIIDR [P9W], 1.35. As for CCSSADICEKCWTLMTMAIRIIDR [P9E], the protein stability index stood at 1.33. Then CCSSADICGKCWTLMTMAIRIIDR [P9G], with 1.9. The result for CCSSADICSKCWTLMTMAIRIIDR [P9S] reads 1.96. As to CCSSADICNKCWTLMTMAIRIIDR [P9N], the protein stability index was 1.29. Take CCSSADICQKCWTLMTMAIRIIDR [P9Q]: the protein stability index worked out at 1.67. Then CCSSADICDKCWTLMTMAIRIIDR [P9D], with 1.64. As to CCSSADICIKCWTLMTMAIRIIDR [P9I], the protein stability index is 1.78. Then CCSSADICMKCWTLMTMAIRIIDR [P9M], with 1.86; and CCSSADICFKCWTLMTMAIRIIDR [P9F], with 1.59.

On to CCSSADICAKCWTLMTMAIRIIDR [P9A], for which the protein stability index amounted to 1.53.

For the variant CCSSADICLKCWTLMTMAIRIIDR [P9L], the protein stability index came to 1.77.

Source of the values: the supplement of paper PMC10567573.
